According to IntAct's records for PubMed 11250154:

B1: Virulence protein F (Agrobacterium tumefaciens (strain 15955)), P15597 (parent)
chain: MRNSSLRDASGSNDAQVPHKTELLNLPDHVLTEVAKRLATNNPVESAENIANFSKSHRFTRDAVRTEPLEKFSSRLKILSRNAKLLSHAVRHAATLPDGEQLSEAQLSQMRSEVATRPVLGVAYTHQDGQPEERLSGNHLDHKINNIPNLVFNVAEPIMFNEISALEVMAEVRPIARSIKTAHDDARAELMSADRPRSTRGL

Variants of: B1
Details: with skp1a_arath SKP1A

Variant	effect of a mutation on the interaction
L26A;P27A	decreasing interaction strength

Variants of: B1
Details: with skp1b_arath SKP1B

Variant	effect of a mutation on the interaction
L26A;P27A	decreasing interaction strength
